Results reported in publication PMC10002811, “Timed material self-assembly controlled by circadian clock proteins” (ArXiv, 2024).

T1: pS KaiC (KaiC-EA; S431E, T432A) (UniProt Q79PF4 1-519, S431E | T432A)
T1 construct: KaiC, circadian clock protein of cyanobacteria, phosphomimetic of the pS431 (night) state; also called pS KaiC mutant; source: recombinantly expressed and purified as previously described
T1 sequence (looked up): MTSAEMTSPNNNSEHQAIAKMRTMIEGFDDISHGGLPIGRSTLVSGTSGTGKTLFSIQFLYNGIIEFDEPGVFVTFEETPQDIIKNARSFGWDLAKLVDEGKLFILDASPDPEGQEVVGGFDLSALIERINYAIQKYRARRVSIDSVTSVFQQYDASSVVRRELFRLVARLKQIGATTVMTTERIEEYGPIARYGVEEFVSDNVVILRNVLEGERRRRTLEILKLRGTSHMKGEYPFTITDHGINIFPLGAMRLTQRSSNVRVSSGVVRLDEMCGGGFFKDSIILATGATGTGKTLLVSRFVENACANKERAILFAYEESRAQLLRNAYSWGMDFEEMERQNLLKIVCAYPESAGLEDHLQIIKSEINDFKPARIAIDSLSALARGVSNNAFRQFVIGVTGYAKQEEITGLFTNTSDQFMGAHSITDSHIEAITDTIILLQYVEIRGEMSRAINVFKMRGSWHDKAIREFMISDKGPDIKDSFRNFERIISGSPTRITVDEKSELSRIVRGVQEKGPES

T2: KaiC (wild-type) (UniProt Q79PF4 1-519)
T2 construct: KaiC, circadian clock protein of cyanobacteria; hexameric ring; In reactions with KaiA the phosphorylation of S431 and T432 cycles over about 24 h; also called WT KaiC; wild-type KaiC; source: recombinantly expressed and purified as previously described
T2 sequence (looked up): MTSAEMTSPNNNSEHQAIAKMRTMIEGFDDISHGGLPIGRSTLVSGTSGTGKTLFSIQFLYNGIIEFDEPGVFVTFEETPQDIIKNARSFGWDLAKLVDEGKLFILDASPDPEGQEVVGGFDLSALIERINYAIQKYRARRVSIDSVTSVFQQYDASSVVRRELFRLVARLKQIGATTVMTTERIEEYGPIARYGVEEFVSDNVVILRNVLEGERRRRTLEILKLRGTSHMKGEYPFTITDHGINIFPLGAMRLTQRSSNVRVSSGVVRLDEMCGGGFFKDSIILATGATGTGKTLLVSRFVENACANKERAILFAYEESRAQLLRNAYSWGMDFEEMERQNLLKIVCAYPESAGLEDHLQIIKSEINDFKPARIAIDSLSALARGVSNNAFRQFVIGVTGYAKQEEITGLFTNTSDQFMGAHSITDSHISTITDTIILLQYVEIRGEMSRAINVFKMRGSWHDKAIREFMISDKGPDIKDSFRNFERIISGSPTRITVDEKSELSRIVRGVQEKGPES


Columns and labels:
Conditions in all cases: both partners purified
[1] = target: T1, pS KaiC (KaiC-EA; S431E, T432A); assay: fluorescence polarisation; colloid-linking conditions: 5.5 μM KaiB (55% b-KaiB), 6.5 μM KaiC (wild-type, pT or pS), 2.2 μM KaiA, 0.4 μM FITC-labeled KaiB K25C; time course
KaiC (wild-type) [2] = target: T2, KaiC (wild-type); assay: fluorescence polarisation; standard oscillator reaction: 1.5 μM KaiA, 3.5 μM KaiC, 3.5 μM KaiB at different ratios of KaiB and b-KaiB, 0.2 μM FITC-labeled KaiB K25C; time course over 144 hrs
KaiC (wild-type) [3] = target: T2, KaiC (wild-type); assay: pull-down; 6.5 μM KaiC (wild-type, pT or pS) and 5.5 μM KaiB (55% b-KaiB, 45% unlabeled KaiB) in Kai buffer (10% glycerol, 150 mM NaCl, 20 mM Tris-HCl pH 8.0, 5 mM MgCl2, 0.5 mM EDTA, 1 mM ATP); 8 hr at 30°C; b-KaiB and partners removed with streptavidin-coated magnetic beads; supernatant analysed by SDS-PAGE
[4] = target: T1, pS KaiC (KaiC-EA; S431E, T432A); assay: as above

binding result [1] | binding result (KaiC (wild-type) [2]) | binding result (KaiC (wild-type) [3]) | binding result [4] | Binder
binds | binds |  |  | FITC-labeled KaiB K25C (natural protein, UniProt Q79PF5 1-102, looked up, FITC label, KaiB, circadian clock protein of cyanobacteria, with K25C; also called fluorescently labeled KaiB) MSPRKTYILKLYVAGNTPNSVRALCTLKNILEVEFQGVYALKVIDVLKNPQLAEEDKILATPTLAKVLPLPVRRIIGDLSDREKVLIGLDLLYGELQDSDDF
 |  | binds | binds | biotinylated KaiB (natural protein, UniProt Q79PF5 1-102, looked up, biotin, amine-reactive (potential sites: lysine residues); EZ-Link-Sulfo-NHS-LC-Biotin at a 50x molar excess to KaiB, KaiB, circadian clock protein of cyanobacteria; In the assays b-KaiB was mixed with unlabeled KaiB (55% b-KaiB, 45% KaiB); also called b-KaiB; source: recombinantly expressed and purified as previously described; biotinylated with EZ-Link-Sulfo-NHS-LC-Biotin) MSPRKTYILKLYVAGNTPNSVRALKTLKNILEVEFQGVYALKVIDVLKNPQLAEEDKILATPTLAKVLPLPVRRIIGDLSDREKVLIGLDLLYGELQDSDDF
